B1: S2_G1 (ssDNA)
DNA: CCAGTGTAGACTACTCAATGCGGCTGTGTGACTTGACCTCTGGATATGGGTGGGAGGGATGGGTACTATCCACAGGTCAACC
B2: S1_A3-A (ssDNA)
DNA: CCAGTGTAGACTACTCAATGCGTGGGAAGGGTGGGTGGGAGCATTGATAACTCGGAGGAGTGTACTATCCACAGGTCAACC

How the values were obtained:
[1] = molecular target: T1, SARS-CoV-2 spike protein trimer (SARS-CoV-2, UniProt P0DTC2); assay: BLI; details: label: 5'-biotin
Text: The aptamers described herein have been isolated using recombinant proteins which represent portions of the full viral surface spike protein (SEQ ID NO: 117). In particular, an amino acid sequence comprising residues Ser686 to Pro1213 of SEQ ID NO: 119 was used to isolate aptamers against the S2 subunit from the SARS-CoV-2 spike protein. For diagnostic and therapeutic applications of the aptamers, it is desirable that the aptamers are capable of binding to the spike protein in the full trimeric form. For example, any aptamers which bind to regions of the monomer which are not accessible in the trimeric spike may not be capable of binding to the virus and so would be less likely to perform well as a diagnostic or therapeutic. Several of the isolated aptamers and Optimers isolated against the S2 subunit of the SARS-CoV-2 spike protein (SEQ ID NO:119), were assessed for binding to the full trimeric spike using the BLI assay described above. Briefly, exemplar Optimers were immobilised onto BLI sensor probes and assessed for the ability to bind to the full SARS-CoV-2 spike protein trimer at a range of concentrations (500 nM, 166 nM, 55 nM, 18.5 nM, 6.1 nM, 2 nM and 0.6 nM in 1× ‘high salt’ aptamer selection buffer). […] Importantly, each of the S2_A2_F12 SEQ ID NO: 179), S2_B1_F12 SEQ ID NO: 188) and S2_G1_F21 (SEQ ID NO: 190) aptamers has a rapid association rate (0-120 sec) and a slow dissociation rate (120-240 sec); which may be important for many diagnostic applications.

[2] = molecular target: SARS-CoV-2 spike S2 subunit (SARS-CoV-2, UniProt P0DTC2 SEQ:1-528); assay: BLI; details: label: 5'-biotin
[3] = molecular target: T1, SARS-CoV-2 spike protein trimer; assay: ELONA
Description: One ELONA plate (immobilised with the S1 binding aptamer A3) was then incubated with a fixed concentration (0.5 μM) of either the aptamer population isolated against the S2 subunit of the SARS-CoV-2 spike protein (S2_8R pool) or full-length aptamer clones S2_A2 (SEQ ID NO: 146), S2_B1 (SEQ ID NO: 150) and S2_G1 (SEQ ID NO: 171) (FIG. 16).

[4] = molecular target: T2, SARS-CoV-2 spike S1 subunit (SARS-CoV-2, UniProt P0DTC2 SEQ:1-670); assay: BLI; details: tags: His tag, SinoBiological 40591-V08B1; label: 5'-biotin
Description: The affinity of four chosen aptamers (aptamer S1_A3-A (SEQ ID NO: 4); aptamer S1_A6 (SEQ ID NO: 8); aptamer S1_A8 (SEQ ID NO: 9); aptamer S1_F2 (SEQ ID NO: 43)) was determined using the BLI assay according to the protocol described above. The biotinylated aptamers were immobilised onto streptavidin biosensor probes (as described above) and then interaction monitored with a concentration series of SARS-CoV-2 Spike protein S1 (250 nM, 125 nM, 62.5 nM, 31.25 nM, 15.63 nM, 7.81 nM, 0 nM diluted in 1× ‘high salt’ aptamer selection buffer). KD values were calculated using the ForteBio software (ForteBio Data Analysis 8.0,), using a 2:1 binding model (FIGS. 6 & 7).

[5] = molecular target: T3, SARS-CoV spike S1 subunit (SARS-CoV, UniProt P59594 SEQ:14-667); assay: BLI; details: tags: SinoBiological; label: 5'-biotin
SARS-CoV-2 spike RBD = SARS-CoV-2 spike RBD (SARS-CoV-2, UniProt P0DTC2 SEQ:1-223); assay: BLI; details: tags: His tag, SinoBiological 40592-V08H; label: 5'-biotin
[6] = molecular target: T2, SARS-CoV-2 spike S1 subunit; assay: BLI; details: tags: His tag, SinoBiological 40591-V08B1; label: 5'-biotin; remark: listed apart in the source
[7] = molecular target: T3, SARS-CoV spike S1 subunit; assay: ELONA; details: tags: SinoBiological; label: 5'-biotin

Row | Binder | binding result [1] | binding result [2] | further results
1 | AATGCCGATGGGTCGGGGGGGTGGG (ssDNA) [S2_A2_F17] | binds | binds | 
2 | B1 |  | binds | binding result [3]: binds
3 | B2 |  |  | binding result [4]: binds; binding result [5]: no binding; binding result (SARS-CoV-2 spike RBD): binds; binding result ([3]; label: 5' biotin): binds
4 | AATGCGTGGGAAGGGTGGGTGGGAGCATTGATA (ssDNA) [S1_A3_F18] |  |  | binding result [6]: binds; binding result [7]: no binding
5 | TGGATATGGGTGGGAGGGATGGGT (ssDNA) [S2_G1_F22] | binds | binds | 
6 | AATGCCGTGGACTGGTCGGGTTTGGATTCGGCA (ssDNA) [S2_B1_F18] | binds | binds | 
